Data as given in the RNAGym collection of RNA variant scans (doi:10.1073/pnas.2313332121).

B1: TPR t1 (parent)
chain: GACCAAUCUGCCCUCAGAGCUCGAGAACAUCUUCGGAUGCAGAGGAGGCAGGCUUCGGUGGCGCGAUAGCGCCAACGUCCUCAACCUCCAAUGCAUCCCACCACAUGAUGAUGCCUGAAGAGCCUUGGUUUUUUG

Variants of: B1
Test: polymerase ribozyme fitness, log enrichment relative to wild type (log ratio); higher = more active; in vitro selection for triplet polymerase activity
In short: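 Streptavidin-bead capture of gel-excised extended constructs, followed by RT-PCR, closed a single triplicate in vitro selection round. That round began by annealing PCR-built, transcribed mutant libraries of each subunit of a heterodimeric triplet polymerase ribozyme with a biotinylated primer, the partner subunit and triplets, then incubating them frozen at −7 °C. After Illumina sequencing of inputs and outputs, genotypes needed ≥10 input reads and ≥1 read per output. Fitness is the base-2 logarithm of genotype enrichment over wild-type enrichment, using inverse-variance-weighted replicate averages.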

Variant	polymerase ribozyme fitness (log ratio)
GACCAAUCUGCCCUCGGAGCUCGAGAACAUCUUCGGAUGCAGAGGAGGCACGCUUCGGUGGCGCGAUAGCGCCAACGUCCUAAACCUCCAAUGCAUCCCACCACAUGAUGAUGCCUGAAGAGCGUUGGUUUUUUG [A16G G51C C82A C124G]	-3.19
GACCAAUCUGCCCUCUGAGCUCGAGAACAUCUUCGGAUGCCGAGGAGGCAGGCUUCAGUGGCGCGAUAGCGCCAACGUCCUCAUCCUCCAAUGCAUCCCACCACAUGAUGAUGCCUGAAGAGCCUUGGUUUUUUG [A16U A41C G57A A84U]	-3.81
GACCAAUCUGCCCUCUGAGCUCGAGAACAUCUUCGGAUGCAGAGGAGGCAGGCUUCGGUGGCGCGAUAGCGCCAACGUCCUCAACCUCCAAUGCAUCCCACCACAUGAUGAUGCCUGAAGAGCUUUGGGUUUUUG [A16U C124U U129G]	0.0068
GACCAAUCUGCCCUCUGAGCUCGAGAACAUCUUCGGAUGAAGAGGAGGCAAGCUUCGGUGGCGCGAUAGCGCCAACGUCCUCAACCUCCAACGCAUCCCACCACAUGAUGAUCCCCCAAGAGCCUUGGUUUUUUG [A16U C40A G51A U92C G113C U116C G117C]	-6.65
GACCAAUCUGCCCUCGGAGCUCGAGAACAUCUUCGGAUGCAGAGGAGGCAGGCUUCGGUGCCGCGAUAGCGUCAACGUCCACAACCUCCAAUGCAUCCCACCACAAGAUGAUGCCCGAAGAGCCUUGGUUUUUUG [A16G G61C C72U U81A U106A U116C]	1.38
GACCAAUCUGCCCUCGGAGCUCGAGAACAUCUUCGGAUGCAGAGGAGGCAGGCUUCGGUGGCGCGAUAGCGCCAACGUCCUCAACCUCCAAUGUAUCCCACCACAUGAUGAUGCCUGAAGAGCCUUGGUUUUUUG [A16G C94U]	-1.93
GACCAAUCUGCCCUCGGAGCUCGAGAACAUCUUCGGAUGCAUAGGAGGAAGGCUUUGGUGACGCGAUAGCGCCAACGUCCUCAACCUCCAAUGCAGCCCACCACAUGAGGAUGCCUGAAGAGCCUUGGUUUUUAG [A16G G42U C49A C56U G61A U96G U109G U134A]	-5.05
GACCAAUCUGCCCUCGGAGCUCGAGAACAUCUUCGGAUGCAGAGGAGGCAGGCUUCGGUGCCGCGAUAGCGCCAACGUCCUCACCCUCCAAUGCAUCCCACCACAUGAUGAUGCCUAAGGAGCCUUGGUUUUUUG [A16G G61C A84C G117A A119G]	-2.13
GACCAAUCUGCCCUCGGAGCUCGAGAACAUCUUCGGAUGCAGAGGAGGCAGGCUUCGGUGGCGCGAUAGCGCCAACGUCCUCAACCUCCAAUGCAUCCCACCACAUGAUGAUCCCUGAAGAGCCUUGGUUUUUUG [A16G G113C]	-3.85
GACCAAUCUGCCCUCGGAGCUCGAGAACAUCUUCGGAUGCAGAGGAGGCAGGCUUCGGUGGCGCGAUAGCGCCAACGUCCUCAACCUCCAAUGCAUCCCACCACAUGAUGAUACCUGAAGAGCCUUGGUUUUUUG [A16G G113A]	-2.04
GACCAAUCUGCCCUCUGAGCUCGAGAACAUCUUCGGGUGCAGAGGAGGCAGGCUUCGGUGGCGCGAUAGCGCCAACGUCCUCAACCUCCAAUGCAUCCCACCACAUGAUGAUACCUGAAGAGCCUUGGUUUUUUG [A16U A37G G113A]	-4.83
GACCAAUCUGCCCUCGGAGCUCGAGAACAUCUUCGGAUGCAGAGGAGGCAGGCUUCGGUGGCGCGAUAGCGCCAACGUCCUCAACCUCCAAUGCAUCCCACCACAUGAUGAAGCCUGAGGAGCCUUGGUUUUUUG [A16G U112A A119G]	2.06
GACCAAUCUGCCCUCUGAGCUCGAGAACAUCUUCGGAUGCAGAGGAGGCAGGCUUAGGUGGCGCGAUAGCGCCAACGUCCUCAACCUCCAAUGCAUCCCACCACAUGAUGAUGCCUUAAGAGCCUUGGUUUUUUG [A16U C56A G117U]	-3.11
GACCAAUCUGCCCUCUGAGCUCGAGAACAUCUUCGGAUGCAGAGGAGGCAGGCUUCGGUGGCGCGAUAGAGCCAACGUCCUCAACCUCCAAUGCAUCCCACCACAUGAUGAUGCCUGAAGAGCCUUGGUUUUUUG [A16U C70A]	-3.19
GACCAAUCUGCCCUCUGAGCUCGAGAACAUCUUCGGAUGCAGAGGAGGCAGGCUUCGGUGGCGCGAUAGUGCCAACGUCCUCAACCUCCAAUGCAUCCCACCACAUGAUGAUGCCUUAAGAGACUUGGUUUUUUG [A16U C70U G117U C123A]	-4.02
GACCAAUCUGCCCUCUAAGAUCGAGAACAUCUUCGGAUGCAGAGGAGGAAGGCUUCGGUGGCGCGAUAGCGCUAACGUCCUCAACCUCCAAUGCAUCCCACCACAUGAUGAUGCCUGAAGAGCCUUGGUUUUUUG [A16U G17A C20A C49A C73U]	-4.77
GACCAAUCUGCCCUCUGAGCUUGAGAACAUCUUCGGAUGCAGAGGAGGCAGGCUUCGGUGGUGCGAUAGCGCCAACGCCCUCAACCUCCAAGGCAUCCCACCACAUGAUGAUGCCUGAAAAGACUUGGUUUUUUG [A16U C22U C62U U78C U92G G120A C123A]	-6.53
GACCAAUCUGCCCUCUGAGCUCGAGAACAUCUUCGGAUGCAGAGGAGGCAGGGUUCGGUGGCGCGAUAGCGCCAACGUCCUCAACCUCCAAUGCAGCCCACCACAUGAUGAAGCCUGAAGAGCCUUGCUUUUUUG [A16U C53G U96G U112A G128C]	-3.45
GACCAAUCUGCCCUCUCAGCUCGAGAACAUCUUCGGAUGCAGAGGAGGCAGGCUUCGGUGGCGCGAUAGCGCCAACGUCCUCAACCUCCAAUGCAUCCCACCACAUGAUGAUGUCUGAAGAGCCUUGGUUUUUUG [A16U G17C C114U]	-1.76
GACCAAUCUGCCCUCGGAGCUCGAGAACAUCUUCGGAUGCAGAGGAGGCAGGCUUCGGUGGCGCGAUAGCGCCAACGUCCUCAACCUCCAAUGAUUCCCACCACAUGAUGAUGCCUGAAGAGCCUUGGUUUUUUG [A16G C94A A95U]	-4.15
GACCAAUCUGCCCUCUGAGCUCGAGAACAUCUUCGGAUGCAGAGGAGGCCGGCUUCGGUGGCGCGAUAGCGCCAACGUCCUCAACCUCCAAUGCAUCCCACCACAUGAUGAUGCCUGAAGAGCCUUGGUUUUUUG [A16U A50C]	-2.04

Variant	polymerase ribozyme fitness (log ratio)
GACCAAUCUGCCCUCGGAGCUCGAGAACAUCUUCGGAUGCAUAGGAGGCAGGCUUCGGUGGCGCGAUAGCGCCAACGUCCUCAACCUCCAAUGCAUCCCACUACAUGAUGAUGCCUGAAGAGCGUUGGUUUUUUG [A16G G42U C102U C124G]	-3.81
GACCAAUCUGCCCUCUGAGCUCGAGAACAUCUUCGGAUGCAGAGGAGGCAGGCUUCGGUGGCGCGAUAGCGCCAACGUCCUCAACCUCCAAUGCAUCCCACCACAUGAUGAUGUCUGAAGAGCCUUGGUUUUUUG [A16U C114U]	-4.86
GACCAAUCUGCCCUCUGAGCUCGAGAACAUCUUCGGAUGCAGAGGAGGCAGGCUUCGGUGGCGCGAUAGCGCCAACGUUCUCAACCUCCAGUGCAUCCCACCACAUGAUGAUGCCUGAAGAGGCUUGGUUGUUUG [A16U C79U A91G C123G U131G]	-1.49
GACCAAUCUGCCCUCUGAGCUCGAGAACAUCUUCGGAUGCAGAGGAGGAAGGCUUCGGUGGCGCGAUAGCGACAACGUCCUCAACCUCCAAUGCAUCCCACCACAUGAUGAUGCCUGAAGAGCCUUGGUUUUUUG [A16U C49A C72A]	-1.6
GACCAAUCUGCCCUCGGAGCUCGAGAACAUCUUCGGAUGCAGAGGAGGCAGGCUUCGGUGGCGCGAUAGCGCCAACGUCCUCAACCUCCAACGCAUCCCACAACAUGAUGAUGCCUGAAGAGCCUUGGUUUUUUG [A16G U92C C102A]	-5.14
GACCAAUCUGCCCUCUGAGCUCGAGAACAUCUUCGGAUGCAGAGGAGGCAGGCUUCGGUGGCGCGAUAGCGCCAACGUCCUCAACCUCCAAUGCAUCCCACCACAUGAUGAUGCCUGAAGAGCUUUGGUUUUUUG [A16U C124U]	0.484
GACCAAUCUGCCCUCGGAGCUCGAGAACAUCUUCGGAUGCAGAGGAGGCAGGCUUCGGUGGCGCGAUAGCCCCAACGUCCUCAACCUCCAAUGCAUCCCACCACAUGAUGAUGCCUGAAGAGCAUUGGUAUUUUG [A16G G71C C124A U130A]	0.62
GACCAAUCUGCCCUCGGAGCUCGAGAACAUCAUCGGAUGCAGAGGAGGCCGGCUUCGGUGGCGCGAUAGCGCCAACGUCCUCAACCUUCAAUGCAUCCCACCACAUGAUGAUGCCUGAAGAGGCAUGGUUUUUUG [A16G U32A A50C C88U C123G U125A]	-3.77
GACCAAUCUGCCCUCUGAGCUCGAGAACAUCUUCGGAUGCAGAGGAGGCAGGCUUCGGUGGUGCGAUAGCGCCAACGUCCUCAACCUCCAAUGCAUCCCACCACAUGAUGAUGCCUGAAGAGCCUUGGUUUUUUG [A16U C62U]	-1.92
GACCAAUCUGCCCUCGGAGCUCGAGAACAUCUUCAGGUGCAGAGGAGGCAGGCUUCGGUGGCGCGAUAGCGCCAACGUCCUCAUCCUCCAAUGCAUCCCACCACAUGAUGAUGCCUGAAGGGCCUUGGUUUUUUG [A16G G35A A37G A84U A121G]	-3.58
GACCAAUCUGCCCUCGGAGCUCGAGAACAUCUUCGGAUGCAGAUGAGGCAGGCUUCGGUGGCGCGAUAGCGCCAACGUCCUCAACCUCCAAUGCAUCCCACCACAUGAUGAUGCCUAAAGAGCCUUGGUUUUUUG [A16G G44U G117A]	-3.84
GACCAAUCUGCCCUCUGGGCUCGAGAACAUCUUCGGAUGCAGAGGAGGCAGGCUUCGGUGGCGCGAUAGCGCCAACGUCCUCAACCUCCAAUGCAUCCCACCACAUGAUGAUGCCUGAAGAGCCUUGGUUUUUUG [A16U A18G]	-3.02
GACCAAUCUGCCCUCUGCGCUCGAGAACAUCUUCGGAUGCAGAGGAGGCAGGCUUCGGUGGCGCGAUAGCGCCAACGUCCUCAACAUCCAAUGCAUCCCACCACAUGAUGAUGCCUGAAGAGCCUUGGUUUUUUG [A16U A18C C86A]	-4.71
GACCAAUCUGCCCUCUGAGCUCGAGAACAUCUUCGGAUGCAGAGGAGGCAGGCUUCGGUGGCGCGAUAGCGCCAACGUCCUCAACCUCCAAUGCAUCCCACUACAUGAUGAUGCCUGAAGAGCCUUGGUUUUUUG [A16U C102U]	-3.23
GACCAAUCUGCCCUCGGAGCUCGAGAACAUCUUCGGAUGCAGAGGAGGCAGGCUUCGGUGGCGCGAUAGCGCCAACGUCCUCAACCUCCAACGCAUCCCACCACAUGAUGAUGCCUGAAGAGCCUUGGCUUUUUG [A16G U92C U129C]	-3.37
GACCAAUCUGCCCUCGGAGCUCGAGAACAUCUUCGGAUGCAGAGGAGGCAGGCUUCGGUGGCGCGAUAGUGCCAAAGUCCUCAACCUCCAAUGCAUCCCACCACAUGAUGAUGCCUGAAGAGCCUUGGUUUUUUG [A16G C70U C76A]	-2.84
GACCAAUCUGCCCUCUGAGCUCGAGAACAUCUUCGGAUGCAGAGGAGGCGGGCUUCGAUAGCGUGAUAGCGCCAACGUCCUCAACCUCCAAUGCAUCCCACCACAUGAUGAUGCCUGAAGAGCCUUGGUUUUUUG [A16U A50G G58A G60A C64U]	-3.73
GACCAAUCUGCCCUCGGAGCUCGAGAACAUCUUCGGAUGCAGAGGAGGCAGGCUUCGGUGGCGCGAUAGCGCCAACGUCCUCAACCUCCAAUGCAUCCCACCACAAGAUGAUGCCUGAAGAGCCUUGGUUUUUUG [A16G U106A]	-0.109
GACCAAUCUGCCCUCUGAGCUCGAGAACAUCUUCGGAUGCAGAGGAGGAAUGCUGCGGUGGCGCGAUAGCGCCAACGUCCUCAACCUCCAAUGCAUCCCACCACAUGAUGAUGCCUGAAGAGCCUGGUUUUUUUG [A16U C49A G51U U55G U126G G128U]	-5.16
GACCAAUCUGCCCUCGGAGCUCGAGAACAUCUUCUGAUGCAGAGGAGGGAGGCUUCGGUGGCGCGAUAGCGCCAACGUCCUCAACCUCCAAUGCAUCCCACCACAUGAUGAUGCAUGAGGUGCCUUGGUUUUUUG [A16G G35U C49G C115A A119G A121U]	-4.09
GACCAAUCUGCCCUCUGAGCUCGAGAACAUCUUCGGAUGCAGAGGAGGCAGGCUUCGGUGGCGCGAUAGCGCCAACGUGCUCAACCUCCAAUGCAUCCCACCACAUGAUGAUGCCUGAAGAGCCUUGGUUUUUUG [A16U C79G]	-2.59
